# Values joined by “and” are separate entries in the source; they are usually repeats but may differ in a detail not shown here. Equal entries are not always repeated.
# Target: human ERH (residues 1–104), His6-tagged (human, UniProt P84090 1-104)
# Experiment: ITC
# human ERH (residues 1–104), His6-tagged, sequence (P84090 whole entry, the tested form may be a part): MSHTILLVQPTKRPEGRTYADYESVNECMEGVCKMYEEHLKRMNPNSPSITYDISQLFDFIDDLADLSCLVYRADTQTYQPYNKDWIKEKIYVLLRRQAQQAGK
binder,measurement,value
PRTARHAPAVRKFSPDLKLLKDVKISVSFTE [His6-SUMO tagged DGCR8^96–126],Kd,~19.6 µM and ~19.7 µM
same,stoichiometry N,0.965

# Source: paper PMC7641749 (Nucleic Acids Research, 2020)
